Data: US20220041658A1 (PROTAGONIST THERAPEUTICS, published 2022)
Positions of bridges follow the written chain, without caps; N, C: chain ends. Non-standard residues stand in square brackets, D forms with d. Trp(7-Me) = Cc1cccc2c(C[C@H](N)C(=O)O)c[nH]c12; 2Nal = N[C@@H](Cc1ccc2ccccc2c1)C(=O)O; AEF = NCCOc1ccc(C[C@H](N)C(=O)O)cc1; Cit = NC(=O)NCCC[C@H](N)C(=O)O; Pen = CC(C)(S)[C@H](N)C(=O)O; αMeK = C[C@](N)(CCCCN)C(=O)O; βAla = NCCC(=O)O

T1: interleukin-23 receptor (IL-23R) (human, UniProt Q5VWK5 24-629)
T1 sequence (looked up): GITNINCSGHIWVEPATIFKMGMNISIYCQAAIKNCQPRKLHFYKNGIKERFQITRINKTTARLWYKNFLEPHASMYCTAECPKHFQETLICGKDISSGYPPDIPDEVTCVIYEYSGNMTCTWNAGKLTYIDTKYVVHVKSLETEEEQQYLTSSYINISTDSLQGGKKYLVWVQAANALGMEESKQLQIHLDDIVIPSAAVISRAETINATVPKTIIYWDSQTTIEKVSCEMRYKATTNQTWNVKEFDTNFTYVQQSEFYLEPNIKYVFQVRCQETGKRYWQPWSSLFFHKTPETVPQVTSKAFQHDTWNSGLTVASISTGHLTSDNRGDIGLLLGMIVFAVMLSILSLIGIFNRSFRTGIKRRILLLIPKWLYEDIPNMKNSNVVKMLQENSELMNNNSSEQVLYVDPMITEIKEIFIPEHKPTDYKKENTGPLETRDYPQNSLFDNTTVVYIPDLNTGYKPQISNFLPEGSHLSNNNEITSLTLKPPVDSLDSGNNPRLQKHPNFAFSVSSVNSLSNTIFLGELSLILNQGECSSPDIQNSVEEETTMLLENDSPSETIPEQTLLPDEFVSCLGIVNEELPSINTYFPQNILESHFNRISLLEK

B1: Peptide of SEQ ID NO: 254 (peptide)
peptide: XNTXKXXXXKNP
modifications: Ac-[Pen]-NT-[W(7-Me)]-[Lys(Ac)]-[Pen]-Phe[4-(2-aminoethoxy)]-[2-Nal]-[a-MeLys]-[Lys(Ac)]-N-[(D)Pro]-NH2; Pen-Pen disulfide
B2: Peptide of SEQ ID NO: 255 (peptide)
peptide: XNTXKXXXXKNI
modifications: Ac-[Pen]-NT-[W(7-Me)]-[Lys(Ac)]-[Pen]-Phe[4-(2-aminoethoxy)]-[2-Nal]-[a-MeLys]-[Lys(Ac)]-N-I-NH2; Pen-Pen disulfide
B3: Peptide of SEQ ID NO: 257 (peptide)
peptide: Ac-[Pen]NT[Trp(7-Me)][Cit][Pen][AEF][2Nal][αMeK]K(Ac)N[dF]-NH2
modifications: disulfide 1-6
SMILES: CC(=O)NCCCC[C@H](NC(=O)[C@](C)(CCCCN)NC(=O)[C@H](Cc1ccc2ccccc2c1)NC(=O)[C@H](Cc1ccc(OCCN)cc1)NC(=O)[C@H]1NC(=O)[C@H](CCCNC(N)=O)NC(=O)[C@H](Cc2c[nH]c3c(C)cccc23)NC(=O)[C@H]([C@@H](C)O)NC(=O)[C@H](CC(N)=O)NC(=O)[C@@H](NC(C)=O)C(C)(C)SSC1(C)C)C(=O)N[C@@H](CC(N)=O)C(=O)N[C@H](Cc1ccccc1)C(N)=O
B4: Peptide of SEQ ID NO: 260 (peptide)
peptide: Ac-[Pen]NT[Trp(7-Me)][Cit][Pen][AEF][2Nal][αMeK]K(Ac)NS-NH2
modifications: disulfide 1-6
SMILES: CC(=O)NCCCC[C@H](NC(=O)[C@](C)(CCCCN)NC(=O)[C@H](Cc1ccc2ccccc2c1)NC(=O)[C@H](Cc1ccc(OCCN)cc1)NC(=O)[C@H]1NC(=O)[C@H](CCCNC(N)=O)NC(=O)[C@H](Cc2c[nH]c3c(C)cccc23)NC(=O)[C@H]([C@@H](C)O)NC(=O)[C@H](CC(N)=O)NC(=O)[C@@H](NC(C)=O)C(C)(C)SSC1(C)C)C(=O)N[C@@H](CC(N)=O)C(=O)N[C@@H](CO)C(N)=O
B5: Peptide of SEQ ID NO: 262 (peptide)
peptide: Ac-[Pen]NT[Trp(7-Me)][Cit][Pen][AEF][2Nal][αMeK]K(Ac)NT-NH2
modifications: disulfide 1-6
SMILES: CC(=O)NCCCC[C@H](NC(=O)[C@](C)(CCCCN)NC(=O)[C@H](Cc1ccc2ccccc2c1)NC(=O)[C@H](Cc1ccc(OCCN)cc1)NC(=O)[C@H]1NC(=O)[C@H](CCCNC(N)=O)NC(=O)[C@H](Cc2c[nH]c3c(C)cccc23)NC(=O)[C@H]([C@@H](C)O)NC(=O)[C@H](CC(N)=O)NC(=O)[C@@H](NC(C)=O)C(C)(C)SSC1(C)C)C(=O)N[C@@H](CC(N)=O)C(=O)N[C@H](C(N)=O)[C@@H](C)O
B6: Peptide of SEQ ID NO: 263 (peptide)
peptide: Ac-[Pen]NT[Trp(7-Me)][Cit][Pen][AEF][2Nal][αMeK]K(Ac)N[dT]-NH2
modifications: disulfide 1-6
SMILES: CC(=O)NCCCC[C@H](NC(=O)[C@](C)(CCCCN)NC(=O)[C@H](Cc1ccc2ccccc2c1)NC(=O)[C@H](Cc1ccc(OCCN)cc1)NC(=O)[C@H]1NC(=O)[C@H](CCCNC(N)=O)NC(=O)[C@H](Cc2c[nH]c3c(C)cccc23)NC(=O)[C@H]([C@@H](C)O)NC(=O)[C@H](CC(N)=O)NC(=O)[C@@H](NC(C)=O)C(C)(C)SSC1(C)C)C(=O)N[C@@H](CC(N)=O)C(=O)N[C@@H](C(N)=O)[C@H](C)O
B7: Peptide of SEQ ID NO: 266 (peptide)
peptide: Ac-[Pen]NT[Trp(7-Me)][Cit][Pen][AEF][2Nal][αMeK]K(Ac)NY-NH2
modifications: disulfide 1-6
SMILES: CC(=O)NCCCC[C@H](NC(=O)[C@](C)(CCCCN)NC(=O)[C@H](Cc1ccc2ccccc2c1)NC(=O)[C@H](Cc1ccc(OCCN)cc1)NC(=O)[C@H]1NC(=O)[C@H](CCCNC(N)=O)NC(=O)[C@H](Cc2c[nH]c3c(C)cccc23)NC(=O)[C@H]([C@@H](C)O)NC(=O)[C@H](CC(N)=O)NC(=O)[C@@H](NC(C)=O)C(C)(C)SSC1(C)C)C(=O)N[C@@H](CC(N)=O)C(=O)N[C@@H](Cc1ccc(O)cc1)C(N)=O
B8: Peptide of SEQ ID NO: 267 (peptide)
peptide: XNTXQXXXXKNX
modifications: Ac-[Pen]-NT-[W(7-Me)]-Q-[Pen]-Phe[4-(2-aminoethoxy)]-[2-Nal]-[a-MeLys]-[Lys(Ac)]-N-[bA]-NH2; Pen-Pen disulfide
B9: Peptide of SEQ ID NO: 268 (peptide)
peptide: Ac-[Pen]NT[Trp(7-Me)][Cit][Pen][AEF][2Nal][αMeK]K(Ac)[βAla][βAla]-NH2
modifications: disulfide 1-6
SMILES: CC(=O)NCCCC[C@H](NC(=O)[C@](C)(CCCCN)NC(=O)[C@H](Cc1ccc2ccccc2c1)NC(=O)[C@H](Cc1ccc(OCCN)cc1)NC(=O)[C@H]1NC(=O)[C@H](CCCNC(N)=O)NC(=O)[C@H](Cc2c[nH]c3c(C)cccc23)NC(=O)[C@H]([C@@H](C)O)NC(=O)[C@H](CC(N)=O)NC(=O)[C@@H](NC(C)=O)C(C)(C)SSC1(C)C)C(=O)NCCC(=O)NCCC(N)=O
B10: Peptide of SEQ ID NO: 269 (peptide)
peptide: XNTXQXXXXKLX
modifications: Ac-[Pen]-N-T-[W(7-Me)]-Q-[Pen]-Phe[4-(2-aminoethoxy)]-[2-Nal]-[a-MeLys]-[Lys(Ac)]-L-[bA]-NH2; Pen-Pen disulfide
B11: Peptide of SEQ ID NO: 270 (peptide)
peptide: XNTXKXXXXKXX
modifications: Ac-[Pen]-N-T-[W(7-Me)]-[Lys(Ac)]-[Pen]-Phe[4-(2-aminoethoxy)]-[2-Nal]-[a-MeLys]-[Lys(Ac)]-[bA]-[bA]-NH2; Pen-Pen disulfide
B12: Peptide of SEQ ID NO: 271 (peptide)
peptide: XNTXKXXXXKSX
modifications: Ac-[Pen]-N-T-[W(7-Me)]-[Lys(Ac)]-[Pen]-Phe[4-(2-aminoethoxy)]-[2-Nal]-[a-MeLys]-[Lys(Ac)]-S-[bA]-NH2; Pen-Pen disulfide
B13: Peptide of SEQ ID NO: 272 (peptide)
peptide: XNTXKXXXXKHX
modifications: Ac-[Pen]-N-T-[W(7-Me)]-[Lys(Ac)]-[Pen]-Phe[4-(2-aminoethoxy)]-[2-Nal]-[a-MeLys]-[Lys(Ac)]-H-[bA]-NH2; Pen-Pen disulfide
B14: Peptide of SEQ ID NO: 273 (peptide)
peptide: XNTXKXXXXEXX
modifications: Ac-[Pen]-N-T-[W(7-Me)]-[Lys(Ac)]-[Pen]-Phe[4-(2-aminoethoxy)]-[2-Nal]-[a-MeLys]-E-[bA]-[bA]-NH2; Pen-Pen disulfide

Each binder was assayed against T1, interleukin-23 receptor (IL-23R) (assay: cell-based or functional assay).

| Binder | pStat3 HTRF IC50 [nM] |
| --- | --- |
| B1 | 3.65 |
| B2 | 2.5 |
| Ac-[Pen]NT[Trp(7-Me)][Cit][Pen][AEF][2Nal][αMeK]K(Ac)N[dR]-NH2 (disulfide 1-6) [Peptide of SEQ ID NO: 256] | 0.754 |
| B3 | 3.88 |
| B4 | 0.699 |
| B5 | 0.996 |
| B6 | 0.603 |
| B7 | 2.78 |
| B8 | 0.506 |
| B9 | 3.24 |
| B10 | 10.1 |
| B11 | 4.43 |
| B12 | 1.91 |
| B13 | 7.13 |
| B14 | 2.69 |
